Assay results taken from patent publication US20230303689A1 (published 2023).
Where two headings read alike, the source gives them in different places.

Assays:
[1] = target: T1, human PD-1 expressed on cells (HuT78/PD-1, NK92MI/PD-1) (human, UniProt Q15116 25-288); test: cell-based or functional assay
[2] = target: T1, human PD-1 expressed on cells …; test: cell-based or functional assay; remark: listed apart in the source
[3] = target: P3Z chimeric PD-1 receptor on HuT78/P3Z cells (human); test: cell-based or functional assay
[4] = target: T2, PD-1-EC/Fc (human); test: SPR (BIAcore T-200), mAb captured on anti-mouse Fc chip, PD-1/Fc injected
T2 construct: also called PD-1/Fc
Procedure: Anti-mouse Fc CM5 biosensor chip (GE Healthcare) was generated using a standard primary amine coupling protocol. PD-1 mAbs at 0.3 µg/ml were captured on anti-mouse Fc surface for 1 min at 10 µl/min. […] Association rates (Kₐ or kₒₙ) and dissociation rates (Kd or koff) were calculated using the one-to-one Langmuir binding model (BIA Evaluation Software, GE Life Sciences). The equilibrium dissociation constant (KD) was calculated as the ratio koff/kₒₙ.

[5] = target: T1, human PD-1 expressed on cells …; test: FACS on PD-1-expressing cells

T1 sequence (Q15116 25-288): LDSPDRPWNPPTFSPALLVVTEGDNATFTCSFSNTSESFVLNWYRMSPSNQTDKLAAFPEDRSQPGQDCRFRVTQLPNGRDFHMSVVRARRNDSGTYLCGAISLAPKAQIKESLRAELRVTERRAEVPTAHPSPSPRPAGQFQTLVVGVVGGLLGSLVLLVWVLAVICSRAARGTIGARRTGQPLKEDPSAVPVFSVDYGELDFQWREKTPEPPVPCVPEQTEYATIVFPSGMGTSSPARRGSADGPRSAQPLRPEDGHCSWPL
T2 sequence (Q15116 21-168): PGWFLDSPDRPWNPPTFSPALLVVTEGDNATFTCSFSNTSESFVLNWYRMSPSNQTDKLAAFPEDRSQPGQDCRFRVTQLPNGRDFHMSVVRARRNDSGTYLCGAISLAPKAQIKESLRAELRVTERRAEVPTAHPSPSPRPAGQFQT
Chain of P3Z chimeric PD-1 receptor on HuT78/P3Z cells (human) (chain, as listed by the source mutant limits assumed): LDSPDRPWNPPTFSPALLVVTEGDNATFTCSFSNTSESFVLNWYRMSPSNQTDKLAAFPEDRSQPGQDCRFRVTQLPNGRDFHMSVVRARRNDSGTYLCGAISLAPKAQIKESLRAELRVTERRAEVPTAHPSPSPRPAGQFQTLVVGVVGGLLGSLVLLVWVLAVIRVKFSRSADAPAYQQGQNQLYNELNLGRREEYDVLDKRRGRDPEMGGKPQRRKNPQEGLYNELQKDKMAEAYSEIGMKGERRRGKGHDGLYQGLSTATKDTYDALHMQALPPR

| Binder | Assay-1, IL-2 release HuT78/PD-1 + HEK293/OS8/PD-L1: Baseline [1] | Assay-1, IL-2 release HuT78/PD-1 + HEK293/OS8/PD-L1: Baseline [2] | Inhibition of IL-2 secretion, HuT78/P3Z + HEK293/PD-L1: IC50 [3] | also measured |
| --- | --- | --- | --- | --- |
| hu326-1 (humanized, human IgG2/kappa) (antibody, V domains shown, not shown: a dimerising Fc or GST) VH: QVQLVQSGSELKKPGASVKVSCKASGYTFTNYGMNWVRQAPGQGLEWMGWINNNNGEPTYAQGFRGRFVFSLDTSASTAYLQISSLKTEDTAVYFCARDVMDYWGQGTTVTVSS VL: DIVLTQSPASLAVSPGQRATITCRASESVDNYGYSFMHWYQQKPGQPPKLLIYRASNLESGVPARFSGSGSRTDFTLTINPVEANDTANYYCQQSKEYPTFGGGTKVEIKR | 283 pg/mL |  |  |  |
| hu317-1 (humanized, human IgG2/kappa) (antibody, V domains shown, not shown: a dimerising Fc or GST) VH: QVQLQESGPGLVKPSETLSLTCTVSGFSLTSYGVHWIRQPPGKGLEWLGVIWAGGSTNYNPSLKSRLTISKDNSKSQVSLKMSSVTAADTAVYYCARAYGNYWYIDVWGQGTTVTVSS VL: DIVMTQSPDSLAVSLGERATINCKASQSVSNDVAWYQQKPGQPPKLLINYAFHRFTGVPDRFSGSGYGTDFTLTISSLQAEDVAVYYCHQAYSSPYTFGGGTKLEIKR |  | 91 pg/mL |  |  |
| ch326 (chimeric antibody from mu326, human IgG2/kappa) (antibody, V domains shown, domain: human Ig kappa C-region; not shown: human IgG2 constant region) VH: QIQLVQSGPELKKPGETVKISCKASGYTFTNYGMNWVKQAPGKGLKWMGWINNNNGEPTYAEEFKGRFAFSLETSASTAYLQINNLKNEDTATYFCARDVMDYWGQGTSVTVSS VL: DIVLTQSPASLAVSLGQRATISCRASESVDNYGYSFMHWYQQKPGQPPQLLIYRASNLESGIPARFSGSGSRTGFTLTINPVEADDVATYYCQQSKEYPTFGGGTKLEVKR | 250 pg/mL |  |  | EC50 [5]: 0.72 µg/mL |
| ch317 (chimeric antibody from mu317, human IgG2/kappa) (antibody, V domains shown, not shown: a dimerising Fc or GST) VH: QVQLKESGPGLVAPSKNLSITCTVSGFSLTSYGVHWIRQPPGKGLEWLGVIWAGGSTNYNSALMSRLSISKDNSRSQVFLRMNSLQTDDTAMYYCARAYGNYWYIDVWGAGTTVTVSS VL: DIVMTQTPKFLLVSAGDRVTITCKASQSVSNDVAWYQQKPGQSPKLLINYAFHRFTGVPDRFTGSGYGTDFIFTISTVQAEDLAVYFCHQAYSSPYTFGGGTKLEMKR |  | 82 pg/mL |  |  |

Second part, led by results:

| Assay-1, IL-2 release HuT78/PD-1 + HEK293/OS8/PD-L1: Baseline [1] | Assay-1, IL-2 release HuT78/PD-1 + HEK293/OS8/PD-L1: Baseline [2] | Inhibition of IL-2 secretion, HuT78/P3Z + HEK293/PD-L1: IC50 [3] | Binder | also measured |
| --- | --- | --- | --- | --- |
| 242 pg/mL |  | 0.039 µg/mL | murine mAb 326 (antibody, V domains shown, Murine hybridoma IgG; also called mu326) VH: QIQLVQSGPELKKPGETVKISCKASGYTFTNYGMNWVKQAPGKGLKWMGWINNNNGEPTYAEEFKGRFAFSLETSASTAYLQINNLKNEDTATYFCARDVMDYWGQGTSVTVSS VL: DIVLTQSPASLAVSLGQRATISCRASESVDNYGYSFMHWYQQKPGQPPQLLIYRASNLESGIPARFSGSGSRTGFTLTINPVEADDVATYYCQQSKEYPTFGGGTKLEVK | Kd [4]: 0.324 nM; koff [4]: 7.79e-05 s⁻¹; kon [4]: 240000 M⁻¹ s⁻¹ |
|  | 98 pg/mL | 0.083 µg/mL | murine mAb 317 (antibody, V domains shown) VH: QVQLKESGPGLVAPSKNLSITCTVSGFSLTSYGVHWIRQPPGKGLEWLGVIWAGGSTNYNSALMSRLSISKDNSRSQVFLRMNSLQTDDTAMYYCARAYGNYWYIDVWGAGTTVTVSS VL: DIVMTQTPKFLLVSAGDRVTITCKASQSVSNDVAWYQQKPGQSPKLLINYAFHRFTGVPDRFTGSGYGTDFIFTISTVQAEDLAVYFCHQAYSSPYTFGGGTKLEMK |  |
